Assay results published in the supplement of paper PMC7125110.
± gives the standard error. For some of these results: Variants at the floor of the assay were thinned out.

B1: glmS ribozyme (parent)
chain: AUAAAAGCGCCAGAACUACAGAAAUGUAGUUGACGAGGAGGAGGUUUAUCGAAUUUUCGGCGGAUGCCUCCAAA

Tests used:
Conditions in all cases: with glucosamine-6-phosphate
glucosamine-6-phosphate [1] = variants of: B1; assay: KM; higher = weaker cofactor use; RNA array
Procedure, shortened: (§1)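 Tiles bearing barcoded ribozyme variants, transcribed in situ by E. coli RNA polymerase on sequenced MiSeq chips, were imaged over ~14 h at 37 °C using a hybridised Cy3 probe. Glucosamine-6-phosphate was supplied at 40 μM to 10 mM in HEPES/KCl/Mg(OAc)2 buffer. kobs came from one- or two-exponential decay fits to normalised per-tile medians, and weighted Michaelis–Menten fits then provided kcat and KM.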

glucosamine-6-phosphate [2] = variants of: B1; assay: self-cleavage kobs at 40 uM GlcN6P; higher = faster cleavage; RNA array
Procedure, shortened: as §1

glucosamine-6-phosphate [3] = variants of: B1; assay: self-cleavage kobs at 160 uM GlcN6P; higher = faster cleavage; RNA array
Procedure, shortened: as §1

glucosamine-6-phosphate [4] = variants of: B1; assay: self-cleavage kobs at 640 uM GlcN6P; higher = faster cleavage; RNA array
Procedure, shortened: as §1

glucosamine-6-phosphate [5] = variants of: B1; assay: self-cleavage kobs at 2500 uM GlcN6P; higher = faster cleavage; RNA array
Procedure, shortened: as §1

glucosamine-6-phosphate [6] = variants of: B1; assay: self-cleavage kobs at 10000 uM GlcN6P; higher = faster cleavage; RNA array
Procedure, shortened: as §1

glucosamine-6-phosphate [7] = variants of: B1; assay: kcat; higher = faster cleavage; RNA array
Procedure, shortened: as §1

Variant	KM (glucosamine-6-phosphate [1]) [µM]	self-cleavage kobs at 40 uM GlcN6P (glucosamine-6-phosphate [2]) [s⁻¹]	self-cleavage kobs at 160 uM GlcN6P (glucosamine-6-phosphate [3]) [s⁻¹]	self-cleavage kobs at 640 uM GlcN6P (glucosamine-6-phosphate [4]) [s⁻¹]	self-cleavage kobs at 2500 uM GlcN6P (glucosamine-6-phosphate [5]) [s⁻¹]	self-cleavage kobs at 10000 uM GlcN6P (glucosamine-6-phosphate [6]) [s⁻¹]	kcat (glucosamine-6-phosphate [7]) [s⁻¹]
G41U A52C	3260 ± 480	–	–	–	–	–	–
A6C G35A	–	< 1e-05	< 1e-05	< 1e-05	< 1e-05	< 1e-05	–
U65C G66A	–	–	–	0.000112 ± 3.9e-05	0.000323 ± 0.00014	0.000416 ± 7.9e-05	0.000598 ± 0.00017
A64U G66A	3460 ± 930	< 1e-05	–	–	4.95e-05 ± 8.6e-06	8.32e-05 ± 1e-05	0.000113 ± 1.2e-05
A64G C71U	2040 ± 540	0.000158 ± 1.6e-05	0.000417 ± 4.5e-05	0.00177 ± 0.00015	0.00386 ± 0.00036	0.00552 ± 0.00084	0.00692 ± 0.0014
U2A A3U C50A	–	< 1e-05	–	–	–	3.38e-05 ± 1.2e-05	–
A6G C50G A64U	–	7.9e-05 ± 3.2e-05	–	–	–	0.000157 ± 2.5e-05	–
A64G U69G C71A	–	–	–	–	–	–	2.3e-05 ± 7.7e-06
U65A C67A	–	5.89e-05 ± 6.3e-06	9.4e-05 ± 8.1e-06	8.78e-05 ± 7.6e-06	–	–	9.68e-05 ± 1.3e-05
A6C C11G A12G C70U	–	< 1e-05	–	–	–	–	–
G62U C71A	–	< 1e-05	–	–	< 1e-05	–	< 1e-05
A6C C11A	–	< 1e-05	< 1e-05	–	< 1e-05	–	–
A6C C11U	–	< 1e-05	< 1e-05	< 1e-05	–	–	–
A6G A36C G51U	–	< 1e-05	–	–	–	< 1e-05	–
A64G C67U	1860 ± 470	2.93e-05 ± 7.3e-06	0.000155 ± 2.3e-05	0.000628 ± 8.6e-05	0.00125 ± 0.00017	0.00154 ± 0.00015	0.00193 ± 0.0003
A6C U56C	–	< 1e-05	< 1e-05	–	–	–	–
A1U U2G A3G C8G A12U G63C C68A	–	< 1e-05	–	–	< 1e-05	< 1e-05	–
A6C G29C A36G	–	< 1e-05	< 1e-05	–	< 1e-05	< 1e-05	–
A6G A15C A53G	–	< 1e-05	–	–	6.25e-05 ± 2e-05	–	–
C71A	2490 ± 360	0.00092 ± 0.0004	0.00104 ± 7.6e-05	0.00298 ± 0.00014	0.00761 ± 0.00039	0.0124 ± 0.0006	0.0153 ± 0.0014
C71G	1460 ± 470	0.000157 ± 1.8e-05	0.00041 ± 3.6e-05	0.000926 ± 4.6e-05	0.00218 ± 0.00013	0.00313 ± 0.00019	0.0034 ± 0.00063

Variant	KM (glucosamine-6-phosphate [1]) [µM]	self-cleavage kobs at 40 uM GlcN6P (glucosamine-6-phosphate [2]) [s⁻¹]	self-cleavage kobs at 160 uM GlcN6P (glucosamine-6-phosphate [3]) [s⁻¹]	self-cleavage kobs at 640 uM GlcN6P (glucosamine-6-phosphate [4]) [s⁻¹]	self-cleavage kobs at 2500 uM GlcN6P (glucosamine-6-phosphate [5]) [s⁻¹]	self-cleavage kobs at 10000 uM GlcN6P (glucosamine-6-phosphate [6]) [s⁻¹]	kcat (glucosamine-6-phosphate [7]) [s⁻¹]
U65A C68A	–	–	5.78e-05 ± 1.6e-05	8.74e-05 ± 1.1e-05	0.00015 ± 2.2e-05	7.53e-05 ± 8.6e-06	8.88e-05 ± 1.5e-05
A6G C50U C58U U65G	–	< 1e-05	–	< 1e-05	–	< 1e-05	–
A6C C10U U30G A52G	–	< 1e-05	–	–	–	< 1e-05	–
A6C G13C A52G	–	< 1e-05	–	–	–	< 1e-05	–
U69C	201 ± 40	0.000631 ± 3.9e-05	0.00145 ± 0.00011	0.00268 ± 0.0002	0.00383 ± 0.00039	–	0.00361 ± 0.00043
A6C C34A	–	< 1e-05	< 1e-05	< 1e-05	< 1e-05	< 1e-05	–
A6G G32C	–	< 1e-05	< 1e-05	< 1e-05	–	< 1e-05	–
A6C A39G G41A U46A A64G	–	< 1e-05	–	–	–	< 1e-05	–
G66C C70U	1440 ± 670	4.77e-05 ± 9.1e-06	0.000178 ± 3.5e-05	0.000285 ± 4.7e-05	0.00109 ± 0.00013	0.0011 ± 0.00011	0.00129 ± 0.00032
A6G A12G G66A	–	< 1e-05	–	< 1e-05	–	–	–
A6C A12U U30A A48C	–	< 1e-05	–	–	–	< 1e-05	–
A64U U65G	–	–	–	–	–	–	1.26e-05 ± 1e-06
A64U C71U	–	–	–	3.94e-05 ± 1.3e-05	3.79e-05 ± 1.6e-05	0.000112 ± 1.6e-05	0.000158 ± 5.9e-05
A6C G9A	–	< 1e-05	–	–	–	< 1e-05	–
U69A C70U	–	–	3.52e-05 ± 1e-05	4.97e-05 ± 8.2e-06	7.15e-05 ± 7.1e-06	6.03e-05 ± 7.8e-06	6.79e-05 ± 5.4e-06
U69A C70A	–	–	–	–	4.37e-05 ± 1.1e-05	3.27e-05 ± 9.4e-06	3.8e-05 ± 4.6e-06
A36U A53U	148 ± 37	–	–	–	–	–	–
A6C U47C U54A G59A C70U	–	< 1e-05	–	–	–	–	–
A6C A12U G29A C68G	–	< 1e-05	–	< 1e-05	< 1e-05	–	–
A6C G60U	–	< 1e-05	< 1e-05	< 1e-05	< 1e-05	< 1e-05	–
A64U C67G	–	< 1e-05	–	< 1e-05	–	–	< 1e-05

Variant	KM (glucosamine-6-phosphate [1]) [µM]	self-cleavage kobs at 40 uM GlcN6P (glucosamine-6-phosphate [2]) [s⁻¹]	self-cleavage kobs at 160 uM GlcN6P (glucosamine-6-phosphate [3]) [s⁻¹]	self-cleavage kobs at 640 uM GlcN6P (glucosamine-6-phosphate [4]) [s⁻¹]	self-cleavage kobs at 2500 uM GlcN6P (glucosamine-6-phosphate [5]) [s⁻¹]	self-cleavage kobs at 10000 uM GlcN6P (glucosamine-6-phosphate [6]) [s⁻¹]	kcat (glucosamine-6-phosphate [7]) [s⁻¹]
G66A C68U	983 ± 280	0.000228 ± 2.5e-05	0.000531 ± 0.00015	0.00267 ± 0.00085	0.00284 ± 0.00078	0.00549 ± 0.0008	0.00532 ± 0.0011
A6C A48U	–	< 1e-05	–	–	< 1e-05	–	–
G38U U65G	107 ± 46	–	–	–	–	–	–
G62C C70U	–	< 1e-05	< 1e-05	< 1e-05	–	< 1e-05	< 1e-05
A6C G63A	–	< 1e-05	< 1e-05	< 1e-05	–	–	–
C67U C70U C71U	339 ± 160	–	–	–	–	–	1.14e-05 ± 1.2e-06
A6G A15G C71U	–	< 1e-05	–	–	–	–	–
C68A C70G	–	< 1e-05	–	–	–	< 1e-05	< 1e-05
C70G C71A	–	–	8.13e-05 ± 1.8e-05	7.38e-05 ± 1.2e-05	6.86e-05 ± 1.8e-05	3.7e-05 ± 9.8e-06	5.66e-05 ± 1.4e-05
A6C C10G	–	< 1e-05	< 1e-05	< 1e-05	–	< 1e-05	–
A6C U49C	–	< 1e-05	< 1e-05	–	–	< 1e-05	–
C68U U69A	–	< 1e-05	–	–	–	–	1.58e-05 ± 6.2e-06
A6C C11U A33C A36G U47G G59A	–	< 1e-05	–	< 1e-05	–	–	–
A6G A14G A39C	–	< 1e-05	–	–	9.9e-05 ± 2.3e-05	0.000209 ± 4.5e-05	–
A6C G13C G29U C70G	–	< 1e-05	–	–	–	–	–
U65A C70A	128 ± 49	–	4.4e-05 ± 1.4e-05	5.79e-05 ± 1.2e-05	6.44e-05 ± 1.3e-05	8.15e-05 ± 1.3e-05	7.41e-05 ± 5e-06
A6C C8U A14G	–	< 1e-05	–	–	–	< 1e-05	–
G66C U69G	–	–	4.18e-05 ± 1.2e-05	8.02e-05 ± 1.2e-05	6.24e-05 ± 1.2e-05	–	5.5e-05 ± 1.9e-05
A6G A12G U31A U54A C71A	–	< 1e-05	< 1e-05	< 1e-05	< 1e-05	–	–
A6G A15C A64C	–	< 1e-05	–	–	< 1e-05	–	–
A6G G32U G37C A64U C68G C70G	–	< 1e-05	–	–	–	–	–

Variant	KM (glucosamine-6-phosphate [1]) [µM]	self-cleavage kobs at 40 uM GlcN6P (glucosamine-6-phosphate [2]) [s⁻¹]	self-cleavage kobs at 160 uM GlcN6P (glucosamine-6-phosphate [3]) [s⁻¹]	self-cleavage kobs at 640 uM GlcN6P (glucosamine-6-phosphate [4]) [s⁻¹]	self-cleavage kobs at 2500 uM GlcN6P (glucosamine-6-phosphate [5]) [s⁻¹]	self-cleavage kobs at 10000 uM GlcN6P (glucosamine-6-phosphate [6]) [s⁻¹]	kcat (glucosamine-6-phosphate [7]) [s⁻¹]
A39G C71U	370 ± 140	0.00144 ± 0.00017	0.00396 ± 0.00059	0.00783 ± 0.0012	0.0119 ± 0.0027	0.0284 ± 0.0069	–
A6G A14U U55G C68G	–	< 1e-05	–	–	–	–	–
U65G G66A	2300 ± 450	4.28e-05 ± 9.4e-06	0.000131 ± 2.3e-05	0.000612 ± 0.0001	0.0013 ± 0.0002	0.00183 ± 0.00025	0.00234 ± 0.0003
A6C G43C G63A C71A	–	< 1e-05	–	–	–	< 1e-05	–
A6C U49G C67U	–	< 1e-05	–	–	< 1e-05	–	–
A6G C67A C68U	–	< 1e-05	–	–	–	–	–
A6G A12G A64U C70U	–	< 1e-05	–	–	–	< 1e-05	–
G66A C67A	1620 ± 470	0.000216 ± 3.4e-05	0.000708 ± 0.00012	0.00222 ± 0.0004	0.00373 ± 0.00093	0.00873 ± 0.0016	0.00809 ± 0.0018
A6G A12C U45G C58U G59C G62A C68G	–	< 1e-05	–	–	–	< 1e-05	–
A6C A12C G59C	–	< 1e-05	–	< 1e-05	–	< 1e-05	–
G62U C67U	–	–	–	–	–	< 1e-05	< 1e-05
G66C C71G	108 ± 50	–	–	4e-05 ± 1.4e-05	4.07e-05 ± 1.1e-05	3.81e-05 ± 1.5e-05	4.2e-05 ± 2.4e-06
G62U U69A	–	–	–	–	–	–	2.59e-05 ± 3.9e-06
A6C G43U	–	< 1e-05	< 1e-05	< 1e-05	< 1e-05	< 1e-05	–
A6C G43C	–	< 1e-05	< 1e-05	< 1e-05	–	< 1e-05	–
A6C G35U A36C	–	< 1e-05	–	–	< 1e-05	< 1e-05	–
G66A C71G	1470 ± 720	5.97e-05 ± 7.2e-06	0.000141 ± 1.8e-05	0.000486 ± 6.2e-05	0.000935 ± 9.9e-05	0.00264 ± 0.00044	0.00165 ± 0.00056
A64C C70U	1590 ± 110	< 1e-05	–	–	3.63e-05 ± 9.6e-06	5.16e-05 ± 6.8e-06	5.98e-05 ± 9.8e-07
